# Test results: patent publication US20180273635A1 (Zymeworks, published 2018)
# Numbering of substitutions follows the chain as printed. Numbers in names are those of the source.
# B1: variant 12475 (antibody, human IgG1, kappa)
# heavy: EVQLVESGGGLVQPGGSLRLSCAASGFRFTDYTMDWVRQAPGKGLEWVADVNPNSGGSIYNQRFKGRFTLSVDRSKNTLYLQMNSLRAEDTAVYYCARNLGPSFYFDYWGQGTLVTVSSASTKGPSVFPLAPSSKSTSGGTAALGCLVKDYFPEPVTVSWNSGALTSGVHTFPAVLQSSGLYSLSSVVTVPSSSLGTQTYICNVNHKPSNTKVDKKVEPKSCDKTHTCPPCPAPELLGGPSVFLFPPKPKDTLMISRTPEVTCVVVDVSHEDPEVKFNWYVDGVEVHNAKTKPREEQYNSTYRVVSVLTVLHQDWLNGKEYKCKVSNKALPAPIEKTISKAKGQPREPQVYVYPPSRDELTKNQVSLTCLVKGFYPSDIAVEWESNGQPENNYKTTPPVLDSDGSFALVSKLTVDKSRWQQGNVFSCSVMHEALHNHYTQKSLSLSPG
# light: not shown
# chain: not shown
# notes: one-armed (OA) pertuzumab variant, HC T28R (Kabat); also called v12475
# B2: variant 12496 (antibody, human IgG1, kappa)
# heavy: B1 heavy with R28T, I59Y
# light: not shown
# chain: not shown
# notes: OA pertuzumab variant, HC I58Y (Kabat); also called v12496
# B3: variant 12545 (antibody, human IgG1, kappa)
# heavy: B1 heavy with R28T, Q62R
# light: not shown
# chain: not shown
# notes: OA pertuzumab variant, HC Q61R, LC Y94K (Kabat); also called v12545
# B4: variant 12500 (antibody, human IgG1, kappa)
# heavy: B1 heavy with R28T, S75Y
# light: not shown
# chain: not shown
# notes: OA pertuzumab variant, HC S74Y (Kabat); also called v12500
# B5: variant 12541 (antibody, human IgG1, kappa)
# heavy: B1 heavy with R28T
# light: not shown
# chain: not shown
# notes: OA pertuzumab variant, LC Y96L (Kabat); also called v12541
# B6: variant 12476 (antibody, human IgG1, kappa)
# heavy: B1 heavy with R28K
# light: not shown
# chain: not shown
# notes: OA pertuzumab variant, HC T28K (Kabat); also called v12476
# B7: variant 12498 (antibody, human IgG1, kappa)
# heavy: B1 heavy with R28T, Q62K
# light: not shown
# chain: not shown
# notes: OA pertuzumab variant, HC Q61K (Kabat); also called v12498
# B8: variant 12515 (antibody, human IgG1, kappa)
# heavy: B1 heavy with R28T
# light: DIQMTQSPSSLSASVGDRVTITCKASQDVSIGVAWYQQKPGKAPKLLIYSASYRYWGVPSRFSGSGSGTDFTLTISSLQPEDFATYYCQQYYIYPYTFGQGTKVEIKRTVAAPSVFIFPPSDEQLKSGTASVVCLLNNFYPREAKVQWKVDNALQSGNSQESVTEQDSKDSTYSLSSTLTLSKADYEKHKVYACEVTHQGLSSPVTKSFNRGEC
# chain: not shown
# notes: OA pertuzumab variant, LC T56W (Kabat); also called v12515
# B9: variant 12487 (antibody, human IgG1, kappa)
# heavy: B1 heavy with R28T, G57K
# light: not shown
# chain: not shown
# notes: OA pertuzumab variant, HC G56K (Kabat); also called v12487
# B10: variant 12488 (antibody, human IgG1, kappa)
# heavy: B1 heavy with R28T, G57R
# light: not shown
# chain: not shown
# notes: OA pertuzumab variant, HC G56R (Kabat); also called v12488
# B11: variant 14064 (antibody, human IgG1, kappa)
# heavy: B1 heavy with R28T, K76A
# light: not shown
# chain: not shown
# notes: OA pertuzumab variant, HC K75A (Kabat); also called v14064
# B12: variant 12477 (antibody, human IgG1, kappa)
# heavy: B1 heavy with R28T, T30R
# light: not shown
# chain: not shown
# notes: OA pertuzumab variant, HC T30R (Kabat); also called v12477
# B13: variant 12543 (antibody, human IgG1, kappa)
# heavy: B1 heavy with R28T, F64L
# light: not shown
# chain: not shown
# notes: OA pertuzumab variant, HC F63L (Kabat); also called v12543
# B14: variant 12535 (antibody, human IgG1, kappa)
# heavy: B1 heavy with R28T
# light: B8 light with W56T, Y91N
# chain: not shown
# notes: OA pertuzumab variant, LC Y91N (Kabat); also called v12535
# B15: variant 12546 (antibody, human IgG1, kappa)
# heavy: B1 heavy with R28T, Q62R
# light: B8 light with D1N, W56T
# chain: not shown
# notes: OA pertuzumab variant, HC Q61R, LC D1N (Kabat); also called v12546
# B16: variant 12537 (antibody, human IgG1, kappa)
# heavy: B1 heavy with R28T
# light: not shown
# chain: not shown
# notes: OA pertuzumab variant, LC Y96M (Kabat); also called v12537
# B17: variant 12481 (antibody, human IgG1, kappa)
# heavy: B1 heavy with R28T, T30K
# light: not shown
# chain: not shown
# notes: OA pertuzumab variant, HC T30K (Kabat); also called v12481
# B18: variant 12542 (antibody, human IgG1, kappa)
# heavy: B1 heavy with R28T, F64G
# light: not shown
# chain: not shown
# notes: OA pertuzumab variant, HC F63G (Kabat); also called v12542
# B19: variant 14066 (antibody, human IgG1, kappa)
# heavy: B1 heavy with R28T, K76V
# light: not shown
# chain: not shown
# notes: OA pertuzumab variant, HC K75V (Kabat); also called v14066
# B20: variant 12486 (antibody, human IgG1, kappa)
# heavy: B1 heavy with R28T, S55H
# light: not shown
# chain: not shown
# notes: OA pertuzumab variant, HC S54H (Kabat); also called v12486
# B21: variant 12518 (antibody, human IgG1, kappa)
# heavy: B1 heavy with R28T, T30R, G57R
# light: not shown
# chain: not shown
# notes: also called v12518
# B22: variant 12492 (antibody, human IgG1, kappa)
# heavy: B1 heavy with R28T, G57W
# light: not shown
# chain: not shown
# notes: OA pertuzumab variant, HC G56W (Kabat); also called v12492
# B23: variant 14065 (antibody, human IgG1, kappa)
# heavy: B1 heavy with R28T, K76I
# light: not shown
# chain: not shown
# notes: OA pertuzumab variant, HC K75I (Kabat); also called v14065
# B24: variant 12495 (antibody, human IgG1, kappa)
# heavy: B1 heavy with R28T, I59F
# light: not shown
# chain: not shown
# notes: OA pertuzumab variant, HC I58F (Kabat); also called v12495
# B25: variant 12526 (antibody, human IgG1, kappa)
# heavy: B1 heavy with R28T, G57M, I59Y
# light: not shown
# chain: not shown
# notes: also called v12526
# B26: variant 12499 (antibody, human IgG1, kappa)
# heavy: B1 heavy with R28T, S75D
# light: not shown
# chain: not shown
# notes: OA pertuzumab variant, HC S74D (Kabat); also called v12499
# B27: variant 12539 (antibody, human IgG1, kappa)
# heavy: B1 heavy with R28T
# light: B8 light with W56T, Y91T
# chain: not shown
# notes: OA pertuzumab variant, LC Y91T (Kabat); also called v12539
# B28: variant 12501 (antibody, human IgG1, kappa)
# heavy: B1 heavy with R28T, S75E
# light: not shown
# chain: not shown
# notes: OA pertuzumab variant, HC S74E (Kabat); also called v12501
# B29: Variant 14052 (antibody, human IgG1, kappa)
# heavy: B1 heavy with R28T, S103W
# light: not shown
# chain: not shown
# notes: OA (one-armed) format; clones 7852, 8781, 4372; also called v14052
# Molecular target: T1, Recombinant human HER2 (human, UniProt P04626 23-652)
# T1 construct: extracellular domain; analyte of the SPR assays; also called HER2 ECD; ECD2 of HER2
# Assay: SPR, variant captured on anti-human Fc, HER2 flowed, 25 C, pre-SEC;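 further: HER2 extracellular domain binding on Biacore T200, CM5 chip with amine-coupled anti-human Fc, duplicate antigen dilutions, global 1:1 Langmuir fit, measured after protein A purification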
# Experimental: (§1) The affinity towards HER2 ECD of the samples was measured by SPR on a Biacore T200 as follows. Between 2000 and 4000 RU of anti-human Fc injected at concentration between 5 and 10 μg/ml was immobilized on a CM5 chip using standard amine coupling. Antigen-binding constructs were captured on the anti-human Fc (injected at concentration at 0.51 microg/mL in PBST, 1 min at 10 microl/min) at response levels ranging from 120-270 RU. […] HER2 dilutions were analyzed in duplicates. Sensograms were fit globally to a 1: 1 Langmuir binding model, using the software provided with the Biacore T200. All experiments were conducted at 25° C.
# (§2) The affinity of antigen-binding constructs in OA format was determined by SPR following protein A purification. […] Antigen-binding constructs in FSA format were purified by protein A affinity and SEC prior to assessment of affinity by SPR.
row,Kd,Binder
1,45 nM,B1
2,66 nM,B2
3,81 nM,B3
4,20 nM,B4
5,63 nM,B5
6,61 nM,B6
7,19 nM,B7
8,26 nM,B8
9,44 nM,B9
10,30 nM,B10
11,9.7 nM,B11
12,23 nM,B12
13,20 nM,B13
14,23 nM,B14
15,15 nM,B15
16,57 nM,B16
17,310 nM,B17
18,40 nM,B18
19,10 nM,B19
20,92 nM,B20
21,21 nM,B21
22,17 nM,B22
23,11 nM,B23
24,50 nM,B24
25,130 nM,B25
26,69 nM,B26
27,75 nM,B27
28,85 nM,B28

# Molecular target: T2, Recombinant human HER2 (human, UniProt P04626 23-652)
# T2 construct: extracellular domain; Analyte of the SPR assays; also called HER2 ECD; ECD2 of HER2
# Assay: SPR, Biacore T200, 25 C; variant captured on anti-human Fc, HER2 flowed;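 further: HER2 extracellular domain analyte run as duplicate dilutions over amine-coupled anti-Fc on a CM5 chip, rates from global sensorgram fitting with a 1:1 Langmuir model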
Kd,koff,kon,Binder
55 nM,0.0053 s⁻¹,97000 M⁻¹ s⁻¹,B29

# Molecular target: T1, Recombinant human HER2
# Assay: SPR, pre-SEC; ratio to WT v10013;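 further: SPR on Biacore T200 at 25 °C, constructs captured via anti-human Fc on CM5 chip, HER2 ECD as analyte, 1:1 Langmuir global fit, after protein A purification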
# Experimental: as §1, §2
row,"Ka, mut/Ka, WT",Binder
1,0.4,B1
2,0.3,B2
3,0.2,B3
4,1,B4
5,0.3,B5
6,0.3,B6
7,1,B7
8,0.8,B8
9,0.4,B9
10,0.6,B10
11,1.7,B11
12,0.9,B12
13,1,B13
14,0.8,B14
15,1.3,B15
16,0.3,B16
17,0.1,B17
18,0.5,B18
19,1.6,B19
20,0.2,B20
21,0.9,B21
22,1.1,B22
23,1.5,B23
24,0.4,B24
25,0.2,B25
26,0.3,B26
27,0.3,B27
28,0.2,B28
